Consider seven molecules from patent US20190367631A1 (Regeneron, published 2019).

The target in test [1] is T1, human MSR1 extracellular domain expressed with a N-terminal nonahistidine tag (His9-hMSR1); R&D Systems, Cat … (human, UniProt P21757 77-451).
T1 construct: extracellular domain; also called His-hMSR1; 9xHis-hMSR1; not shown: N-terminal nonahistidine tag
T1 sequence (looked up): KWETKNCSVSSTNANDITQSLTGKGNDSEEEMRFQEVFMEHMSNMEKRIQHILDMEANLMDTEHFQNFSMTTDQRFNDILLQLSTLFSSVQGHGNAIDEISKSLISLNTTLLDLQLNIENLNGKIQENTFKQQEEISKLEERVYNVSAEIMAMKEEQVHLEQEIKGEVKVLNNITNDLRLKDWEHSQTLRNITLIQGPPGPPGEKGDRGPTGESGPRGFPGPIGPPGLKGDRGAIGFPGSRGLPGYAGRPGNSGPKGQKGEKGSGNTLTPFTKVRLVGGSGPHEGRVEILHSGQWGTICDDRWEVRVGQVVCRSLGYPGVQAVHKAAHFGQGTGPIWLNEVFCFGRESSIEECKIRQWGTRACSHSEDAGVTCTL
Nature of the test: BLI Octet, 25 C, antibody captured. (In general: In BLI a coated tip is dipped into the sample, and binding shifts an interference pattern.)

Test [2] deals with T2, monkey MSR1 extracellular domain expressed with a N-terminal hexahistidine-myc-myc tag (HMM-mfMSR1) (monkey (Macaca fascicularis)).
T2 chain: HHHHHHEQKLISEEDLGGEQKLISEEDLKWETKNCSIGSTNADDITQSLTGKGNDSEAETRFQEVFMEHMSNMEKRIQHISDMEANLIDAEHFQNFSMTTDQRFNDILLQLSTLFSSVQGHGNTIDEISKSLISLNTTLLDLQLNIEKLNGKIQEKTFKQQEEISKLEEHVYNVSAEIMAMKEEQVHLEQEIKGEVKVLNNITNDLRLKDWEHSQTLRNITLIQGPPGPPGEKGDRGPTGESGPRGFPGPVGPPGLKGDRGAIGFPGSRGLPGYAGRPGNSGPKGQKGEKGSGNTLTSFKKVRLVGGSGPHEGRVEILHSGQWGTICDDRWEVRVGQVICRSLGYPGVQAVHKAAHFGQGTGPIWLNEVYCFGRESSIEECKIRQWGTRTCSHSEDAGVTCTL
Nature of the test: BLI Octet, 25 C, antibody captured.
Procedure: (§1) Binding affinities and kinetic constants of human anti-MSR1 antibodies for different MSR1 reagents were determined using a real time, label-free bio-layer interferometry assay on an OCTET® HTX biosensor platform (Pall FortéBio Corp., Menlo Park, Calif.). The experiment was performed at 25° C. in 10 mM HEPES, 150 mM NaCl, 3 mM EDTA, 0.05% v/v Surfactant Tween-20, and 1 mg/mL BSA, pH7.4 (HBS-EBT) buffer with the plate shaking at the speed of 1000 rpm. […] The anti-MSR1 monoclonal antibodies were captured by dipping either anti-human Fc (AHC) or anti-mouse Fc (AMC) Octet biosensors in wells containing 5 pg/mL or 10 pg/mL of anti-MSR1 monoclonal antibody for 45-90 seconds. […] The binding of different MSR1 reagents to the captured anti-MSR1 monoclonal antibody was measured for 4 minutes and the dissociation of monoclonal antibody bound MSR1 reagent was monitored for 8-10 minutes in HBS-EBT buffer.
(§2) The association rate (kₐ) and dissociation rate (kd) were determined by fitting the real-time binding sensorgrams to a 1:1 binding model with mass transport limitation using Scrubber 2.0c curve-fitting software. Binding dissociation equilibrium constant (KD) and dissociative half-life (t½) were calculated from the kinetic rates as:

The target in test [3] is T3, mouse MSR1 extracellular domain expressed with a N-terminal nonahistidine tag (His9-mMSR1); R&D Systems, Cat … (mouse, UniProt P30204 79-458).
T3 construct: extracellular domain; not shown: N-terminal nonahistidine tag
T3 sequence (looked up): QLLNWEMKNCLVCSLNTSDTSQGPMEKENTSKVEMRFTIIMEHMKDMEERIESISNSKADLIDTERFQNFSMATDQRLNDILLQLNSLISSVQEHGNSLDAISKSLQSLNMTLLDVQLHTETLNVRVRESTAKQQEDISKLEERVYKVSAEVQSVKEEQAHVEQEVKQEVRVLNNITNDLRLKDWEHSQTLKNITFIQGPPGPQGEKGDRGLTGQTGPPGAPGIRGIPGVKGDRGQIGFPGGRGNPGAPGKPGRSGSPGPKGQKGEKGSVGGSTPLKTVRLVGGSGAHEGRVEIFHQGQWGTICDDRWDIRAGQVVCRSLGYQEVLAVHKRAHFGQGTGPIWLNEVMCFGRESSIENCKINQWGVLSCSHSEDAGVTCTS
The test is described as follows: BLI Octet, 25 C, antibody captured.

The target in test [4] is T1, human MSR1 extracellular domain …. Nature of the test: SPR Biacore, 25 C, antibody captured; kd fixed, no dissociation seen.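 Further: rates from 1:1 fit with mass transport limitation of real-time sensorgrams, HEPES-buffered saline with EDTA and Tween-20 at pH 7.4, KD and t½ derived from the kinetic rates.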
Procedure: (§3) Binding affinities and kinetic constants of human anti-MSR1 antibodies for different MSR1 reagents were determined by real-time surface plasmon resonance (Biacore 4000). All binding studies were performed in 10 mM HEPES, 150 mM NaCl, 3 mM EDTA, and 0.05% v/v Surfactant Tween-20, pH 7.4 (HBS-ET) running buffer at 25° C. and 37° C.
as §2
Test [5] addresses T2, monkey MSR1 extracellular domain …. The test is described as follows: SPR Biacore, 25 C, antibody captured.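 Further: rates from 1:1 fit with mass transport limitation of real-time sensorgrams, HEPES-buffered saline with EDTA and Tween-20 at pH 7.4, KD and t½ derived from the kinetic rates.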
Procedure: as §3, §2
Test [6] addresses T1, human MSR1 extracellular domain …. The test is described as follows: SPR Biacore, 37 C, antibody captured. For orientation: In SPR one partner is held on a chip, and binding of the other changes the refractive index at the surface.
Procedure: as §3, §2
The target of test [7] is T2, monkey MSR1 extracellular domain …. Nature of the test: SPR Biacore, 37 C, antibody captured.
Procedure: as §3, §2
The target of test [8] is T3, mouse MSR1 extracellular domain …. The test is described as follows: BLI Octet, 25 C, antibody captured; kd fixed, no dissociation seen.
Procedure: as §1, §2
Test [9] deals with T1, human MSR1 extracellular domain …. The test is described as follows: SPR Biacore, 37 C, antibody captured; kd fixed, no dissociation seen.
Procedure: as §3, §2
The target in test [10] is T2, monkey MSR1 extracellular domain …. The description is as above.
Procedure: as §3, §2
For test [11] the target is unchanged. The test is described as follows: SPR Biacore, 25 C, antibody captured; kd fixed, no dissociation seen.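 Further: rates from 1:1 fit with mass transport limitation of real-time sensorgrams, HEPES-buffered saline with EDTA and Tween-20 at pH 7.4, KD and t½ derived from the kinetic rates.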
Procedure: as §3, §2

Some results are limits rather than exact numbers.

B1: H2aM21228N (antibody, V domains shown)
VH: VQLVESGGGLVQPGGSLRLSCAASGFTFSDHYMDWVRQAPGKGLEWVGRTRNKANSHTTEYAASVSGRFTISRDDSKNSLYLQMNSLKTEDTAVYYCTRAGIIGTLFDYWGQGTLVTVSS
VL: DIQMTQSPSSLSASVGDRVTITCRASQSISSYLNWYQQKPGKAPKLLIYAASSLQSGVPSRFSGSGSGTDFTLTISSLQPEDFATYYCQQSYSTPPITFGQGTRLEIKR
notes: Human variable domains with mouse IgG2a Fc; tied by the numerical identifier
For the molecule B1, in test [1], the Kd (usually the concentration at which binding is half-saturated) was 0.954 nM; the koff (as a rule, the first-order rate constant of dissociation) amounted to 0.000116 s⁻¹; the kon (usually the second-order rate constant of association) turned out to be 122000 M⁻¹ s⁻¹; the t½ (as a rule, how long it takes for the measured level to halve) was found to be 1.67 h. In test [2], this molecule yielded a Kd of 1.45 nM, an off-rate constant (koff) of 0.000146 s⁻¹, a kon of 100000 M⁻¹ s⁻¹ and a t½ of 1.32 h. The binding result in [3] is “no binding (tested: 100 nM)”.

B2: H2aM21235N (antibody, V domains shown)
VH: EVQLVESGGGLVQPGGSLRLSCAASGFTFSDHYMDWVRQAPGKGLEWVGRTRNKANSYTTEYAASVSGRFTISRDDSKNSLYLQMNSLKTEDTAVYYCTRAGIIGTLFDYWGQGTLVTVSS
VL: DIQMTQSPSSLSASVGDRVTITCRASQIIGRYLNWFQQKPGKVPKLLIYAASSLQRGVPSRFSGSGSGTDFTLTISSLQPEDFATYYCQQSYNTPPITFGQGTRLEIKR
notes: as for B1
In [1], B2 had a Kd of 0.378 nM and a t½ of 4.2 h. In test [2], this molecule gave a Kd of 0.612 nM and a t½ of 3.07 h. In addition, the binding result in test [3] is “no binding (tested: 100 nM)”.

B3: H2aM21229N (antibody, V domains shown)
VH: EVQLVESGGGLVKPGGSLRLSCAASGFTFSRYSMNWVRQAPGKGLEWVSSISSSSSYIYYGDTVKGRFTISRDNAKKSLYLQMNSLRAEDTAVYYCVRDRGQLVLYFDYWGQGTLVTVSS
VL: DIQMTQSPASLSTSIRDRVTITCRASLSISSFLNWFQQRPGKAPKLLIYVASNLQSGVPSRFSDSGSGTDFTLTISSLQPEDFATYYCQQNYSTPPITFGQGTRLEIK
notes: Human variable domains with mouse IgG2a Fc
In test [1], B3 yielded a Kd of 0.7 nM, a koff of 0.00021 s⁻¹, a kon of 300000 M⁻¹ s⁻¹ and a t½ of 0.917 h. Besides, in [2], the affinity, expressed as Kd, was 16.4 nM; the koff came to 0.00222 s⁻¹; the kon turned out to be 135000 M⁻¹ s⁻¹; the t½ was determined as 0.0833 h. Further, the binding result in test [3] was “no binding (tested: 100 nM)”.

B4: H1H27754P-N297Q (antibody, V domains shown)
VH: EVQLVESGGGLVQPGGSLRLSCAASGFTFRTYAMTWVRQAPGKGLDWVSAITGDGGNTYYADSVKGRFTISRDNSKNTLYLQMNSLRAEDTAIYYCAKDQRFSFALYYFDYWGQGTLVTVSS
VL: DIQMTQSPSSVSASVGDRVTITCRASQGISSWLAWYQQKPGNAPKLLIYAAFSLQSGVPSRFSGSGSGTDFTLTISSLQPEDFATYYCQQANNFPWTFGQGTKVEIKR
notes: Human IgG1 Fc with N297Q point mutation
As for B4, in [4], the Kd was at most 0.0344 nM, the koff is at most 1e-05 s⁻¹, the kon turned out to be 290000 M⁻¹ s⁻¹ and the t½ worked out at 19.2 h. In test [5], this molecule yielded a Kd of 0.075 nM, a koff of 1.76e-05 s⁻¹, a kon of 235000 M⁻¹ s⁻¹ and a t½ of 10.9 h. Further, in test [6], the Kd turned out to be 0.0381 nM, the koff stood at 2.53e-05 s⁻¹, the kon was 663000 M⁻¹ s⁻¹ and the t½ stood at 7.62 h. Moreover, in test [7], the Kd was found to be 0.0504 nM, the koff was found to be 3.53e-05 s⁻¹, the kon turned out to be 701000 M⁻¹ s⁻¹ and the t½ stood at 5.45 h. Also, in [3], the binding result is on record as “no binding (tested: 50 nM)”.

B5: H1H21234N-N297Q (antibody, V domains shown)
VH: QVQLQESGPGLVKPSETLSLTCTVTGGSISRNYWSWIRQPPGKGLEWIGYIYYSGSIDYNPSLKSRVTISVDTSKNQFSLKLSSMTAADTAVYYCARDRWNWKYGMDVWGQGTTVIVSS
VL: EIVLTQSPGTLSLSPGERATLSCRASQTVRNNYLAWYHQKPGQAPRLLIYGASSRATGIPDRFSGSGSGTDFTLTISRLEPEDFTVYYCHQYGNSPWTFGQGTKMEIKR
notes: Human IgG1 Fc with N297Q point mutation (EU numbering)
In the case of B5, the Kd in test [4] is at most 0.0201 nM; in [8], at most 1.31 nM; in test [5], 0.0466 nM; in test [9], 0.0127 nM; in test [10] it was 0.0133 nM. Besides, the koff in test [4] is at most 1e-05 s⁻¹; in test [8], at most 5e-05 s⁻¹; in [5], 1.95e-05 s⁻¹; in test [9], at most 1e-05 s⁻¹; in test [10], at most 1e-05 s⁻¹. For the same molecule, the kon was determined as 497000 M⁻¹ s⁻¹ in [4]; 38200 M⁻¹ s⁻¹ in [8]; 408000 M⁻¹ s⁻¹ in test [5]; 787000 M⁻¹ s⁻¹ in test [9]; 750000 M⁻¹ s⁻¹ in [10]. The t½ is 19.2 h in test [4]; 3.85 h in [8]; 9.88 h in test [5]; 19.2 h in [9]; 19.2 h in test [10].

B6: H1H21234N (antibody, V domains shown)
VH: QVQLQESGPGLVKPSETLSLTCTVTGGSISRNYWSWIRQPPGKGLEWIGYIYYSGSIDYNPSLKSRVTISVDTSKNQFSLKLSSMTAADTAVYYCARDRWNWKYGMDVWGQGTTVIVSS
VL: EIVLTQSPGTLSLSPGERATLSCRASQTVRNNYLAWYHQKPGQAPRLLIYGASSRATGIPDRFSGSGSGTDFTLTISRLEPEDFTVYYCHQYGNSPWTFGQGTKMEIKR
notes: Original human IgG1 Fc (no N297 mutation)
Turning to B6, the Kd in [4] is at most 0.0166 nM; in test [11], at most 0.0298 nM; in test [8] it was at most 1.09 nM; in [9], 0.0148 nM; in [10] it was 0.0138 nM. Moreover, the koff in test [4] was at most 1e-05 s⁻¹; in [11], at most 1e-05 s⁻¹; in test [8], at most 5e-05 s⁻¹; in test [9] it was at most 1e-05 s⁻¹; in [10] it was at most 1e-05 s⁻¹. Further, the kon in [4] was determined as 604000 M⁻¹ s⁻¹; in test [11] it was 336000 M⁻¹ s⁻¹; in [8], 46000 M⁻¹ s⁻¹; in test [9] it was 676000 M⁻¹ s⁻¹; in test [10] it was 726000 M⁻¹ s⁻¹. Besides, the t½ is 19.2 h in test [4]; 19.2 h in test [11]; 3.85 h in test [8]; 19.2 h in test [9]; 19.2 h in test [10].

B7: H2aM25695N (antibody, V domains shown)
VH: QVQLQESGPGLVKPSETLSLTCTVTGGSISRNYWSWIRQPPGKGLEWIGYIYYSGSINYNPSLKSRVTISVDMSKNQFSLKLNSVTAADTAVYYCARDRWNWKYGMDVWGQGTTVIVSS
VL: EIVLTQSPGTLSLSPGERATLSCRASQTVRNSYLAWYHQKPGQAPRLLIYGASSRATGIPDRFSGSGSGTDFTLTISRLEPEDFAVYYCQQYGSSYWTFGQGTKMEIKR
notes: as for B1
In test [1], B7 returned a Kd of 1.46 nM, a koff of 0.000527 s⁻¹, a kon of 360000 M⁻¹ s⁻¹ and a t½ of 0.367 h. In [2], the Kd came out at 1.83 nM, the koff was 0.000571 s⁻¹, the kon came out at 312000 M⁻¹ s⁻¹ and the t½ is 0.333 h. For the same molecule, the binding result in test [3] was “no binding (tested: 100 nM)”.
